T1: ARHGAP21, Q5T5U3
T1 sequence (Q5T5U3 45-169, limits assumed, looked up): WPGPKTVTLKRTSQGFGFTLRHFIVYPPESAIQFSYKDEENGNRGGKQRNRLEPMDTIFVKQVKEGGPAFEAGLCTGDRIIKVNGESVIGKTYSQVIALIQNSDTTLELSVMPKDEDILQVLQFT

T2: DLG3_2, Q92796
T2 sequence (Q92796 221-321, limits assumed, looked up): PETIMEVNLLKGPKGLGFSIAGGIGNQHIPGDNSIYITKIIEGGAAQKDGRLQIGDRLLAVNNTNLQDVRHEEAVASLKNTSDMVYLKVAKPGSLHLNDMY

T3: SNTG2, Q9NY99
T3 sequence (Q9NY99 68-166, limits assumed, looked up): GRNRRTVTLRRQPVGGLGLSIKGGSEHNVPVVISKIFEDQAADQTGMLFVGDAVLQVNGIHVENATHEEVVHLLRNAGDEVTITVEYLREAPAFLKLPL

T4: TJP3_3, O95049
T4 sequence (O95049 375-456, limits assumed, looked up): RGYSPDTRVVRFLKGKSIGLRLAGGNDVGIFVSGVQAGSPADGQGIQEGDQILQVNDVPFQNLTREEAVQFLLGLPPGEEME

T5: SIPA1L2, Q9P2F8
T5 sequence (Q9P2F8 945-1036, limits assumed, looked up): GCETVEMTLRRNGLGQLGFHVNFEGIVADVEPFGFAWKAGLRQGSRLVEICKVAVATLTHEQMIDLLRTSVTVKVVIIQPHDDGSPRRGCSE

T6: PTPN13_1, Q12923
T6 sequence (Q12923 1088-1188, limits assumed, looked up): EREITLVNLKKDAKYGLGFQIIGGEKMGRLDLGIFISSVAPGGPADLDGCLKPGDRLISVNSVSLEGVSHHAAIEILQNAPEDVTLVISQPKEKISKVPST

T7: SYNJ2BP, P57105
T7 sequence (P57105 8-110, limits assumed, looked up): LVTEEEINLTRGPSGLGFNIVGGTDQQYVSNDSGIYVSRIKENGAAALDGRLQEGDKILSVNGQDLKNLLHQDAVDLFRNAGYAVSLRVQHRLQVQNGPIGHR

T8: DFNB31_1, Q9P202
T8 sequence (Q9P202 135-233, limits assumed, looked up): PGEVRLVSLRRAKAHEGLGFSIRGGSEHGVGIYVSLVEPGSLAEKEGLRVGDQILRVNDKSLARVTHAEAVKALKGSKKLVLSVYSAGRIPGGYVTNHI

T9: DLG3_3, Q92796
T9 sequence (Q92796 374-475, limits assumed, looked up): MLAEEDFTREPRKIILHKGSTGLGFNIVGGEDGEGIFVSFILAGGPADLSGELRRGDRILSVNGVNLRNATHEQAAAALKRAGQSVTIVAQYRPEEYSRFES

T10: LRRC7, Q96NW7
T10 sequence (Q96NW7 1440-1537, limits assumed, looked up): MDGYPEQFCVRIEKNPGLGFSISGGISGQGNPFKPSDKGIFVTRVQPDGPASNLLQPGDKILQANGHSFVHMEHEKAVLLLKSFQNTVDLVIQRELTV

T11: SHANK1, Q9Y566
T11 sequence (Q9Y566 658-767, limits assumed, looked up): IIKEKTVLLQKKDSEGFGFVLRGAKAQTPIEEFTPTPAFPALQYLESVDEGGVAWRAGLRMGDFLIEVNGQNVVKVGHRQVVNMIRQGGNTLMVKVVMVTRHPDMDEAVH

T12: MPP2, Q14168
T12 sequence (Q14168 180-250, limits assumed, looked up): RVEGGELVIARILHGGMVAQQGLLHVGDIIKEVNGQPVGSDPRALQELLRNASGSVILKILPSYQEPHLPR

B1: HPV59-E6, Q81964 (peptide)
chain: QRQARSETLV
B2: ARHGEF7, Q14155;Q14155-1 (peptide)
chain: NDPAWDETNL

Each binder was assayed against DLG4_2, P78352 (assay: holdup assay). Settings: plain residues with an end cap or a label only (N-terminal biotin on a linker: ttds).
Chain of DLG4_2, P78352 (P78352 155-259): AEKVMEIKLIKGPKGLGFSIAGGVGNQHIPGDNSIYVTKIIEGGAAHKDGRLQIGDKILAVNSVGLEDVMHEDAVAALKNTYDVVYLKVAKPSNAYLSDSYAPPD
Set-up: key: below the threshold = too weak to quantify, mostly under pKd 3.1 to 4
With B1 the pKd was 5.45. In the case of B2, the pKd is reported as “below the threshold”.

What follows are binders tested against T1, ARHGAP21, Q5T5U3 (assay: holdup assay). Settings: plain residues with an end cap or a label only (N-terminal biotin on a linker: ttds).
Set-up: key: below the threshold = too weak to quantify, mostly under pKd 3.1 to 4
B1 was tested, and the pKd was “below the threshold”.

These binders were tested against T2, DLG3_2, Q92796 (assay: holdup assay). Settings: plain residues with an end cap or a label only (N-terminal biotin on a linker: ttds).
Set-up: key: below the threshold = too weak to quantify, mostly under pKd 3.1 to 4
B1 gave a pKd of 5.17. B2 was tested, and the pKd was “below the threshold”.

These binders were tested against T3, SNTG2, Q9NY99 (assay: holdup assay). Settings: plain residues with an end cap or a label only (N-terminal biotin on a linker: ttds).
Set-up: key: below the threshold = too weak to quantify, mostly under pKd 3.1 to 4
Work on B1 yielded a pKd of 4.05. Work on B2 yielded a pKd of 4.22.

The binders below were run against T4, TJP3_3, O95049 (assay: holdup assay). Settings: plain residues with an end cap or a label only (N-terminal biotin on a linker: ttds).
Set-up: key: below the threshold = too weak to quantify, mostly under pKd 3.1 to 4
In the case of B1, the pKd is reported as 3.7. For B2, the pKd was “below the threshold”.

Each binder was assayed against T5, SIPA1L2, Q9P2F8 (assay: holdup assay). Settings: plain residues with an end cap or a label only (N-terminal biotin on a linker: ttds).
Set-up: key: below the threshold = too weak to quantify, mostly under pKd 3.1 to 4
For B1, the pKd was “below the threshold”. For B2, the pKd was “below the threshold”.

These binders were tested against NHERF4_2, Q86UT5 (assay: holdup assay). Settings: plain residues with an end cap or a label only (N-terminal biotin on a linker: ttds).
Chain of NHERF4_2, Q86UT5 (Q86UT5 220-308): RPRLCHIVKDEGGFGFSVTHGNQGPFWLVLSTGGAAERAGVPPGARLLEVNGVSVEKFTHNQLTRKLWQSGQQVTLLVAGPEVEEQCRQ
Set-up: key: below the threshold = too weak to quantify, mostly under pKd 3.1 to 4
With B1 the pKd was “below the threshold”. In the case of B2, the pKd is reported as “below the threshold”.

These binders were tested against PTPN3, P26045 (assay: holdup assay). Settings: plain residues with an end cap or a label only (N-terminal biotin on a linker: ttds).
Chain of PTPN3, P26045 (P26045 505-587): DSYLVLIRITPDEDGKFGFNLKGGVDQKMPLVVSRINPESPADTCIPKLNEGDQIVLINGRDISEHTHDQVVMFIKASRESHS
Set-up: key: below the threshold = too weak to quantify, mostly under pKd 3.1 to 4
Binder B1 has a pKd of 4.4. For B2, the pKd was 4.44.

What follows are binders tested against T6, PTPN13_1, Q12923 (assay: holdup assay). Settings: plain residues with an end cap or a label only (N-terminal biotin on a linker: ttds).
Set-up: key: below the threshold = too weak to quantify, mostly under pKd 3.1 to 4
B1 was tested, and the pKd was “below the threshold”. In the case of B2, the pKd is reported as “below the threshold”.

The binders below were run against LNX1_2, Q8TBB1 (assay: holdup assay). Settings: plain residues with an end cap or a label only (N-terminal biotin on a linker: ttds).
Chain of LNX1_2, Q8TBB1 (Q8TBB1 371-470): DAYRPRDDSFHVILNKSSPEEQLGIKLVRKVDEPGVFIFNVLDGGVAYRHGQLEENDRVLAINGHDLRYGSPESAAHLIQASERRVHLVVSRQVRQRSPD
Set-up: key: below the threshold = too weak to quantify, mostly under pKd 3.1 to 4
Binder B1 has a pKd of 4.25. With B2 the pKd was “below the threshold”.

These binders were tested against T7, SYNJ2BP, P57105 (assay: holdup assay). Settings: plain residues with an end cap or a label only (N-terminal biotin on a linker: ttds).
Set-up: key: below the threshold = too weak to quantify, mostly under pKd 3.1 to 4
B1 showed a pKd of 4.81.

The binders below were run against SCRIB_3, Q14160 (assay: holdup assay). Settings: plain residues with an end cap or a label only (N-terminal biotin on a linker: ttds).
Chain of SCRIB_3, Q14160 (Q14160 999-1103): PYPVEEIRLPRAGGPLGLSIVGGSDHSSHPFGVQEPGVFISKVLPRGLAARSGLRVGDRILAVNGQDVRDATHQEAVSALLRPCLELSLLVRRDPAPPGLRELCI
Set-up: key: below the threshold = too weak to quantify, mostly under pKd 3.1 to 4
For B1, the pKd was 3.86. With B2 the pKd was 5.08.

Each binder was assayed against FRMPD3, Q5JV73 (assay: holdup assay). Settings: plain residues with an end cap or a label only (N-terminal biotin on a linker: ttds).
Chain of FRMPD3, Q5JV73 (Q5JV73 12-100): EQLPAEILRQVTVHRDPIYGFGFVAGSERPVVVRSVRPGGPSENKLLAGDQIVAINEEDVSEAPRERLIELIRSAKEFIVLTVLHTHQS
Set-up: key: below the threshold = too weak to quantify, mostly under pKd 3.1 to 4
In the case of B1, the pKd is reported as “below the threshold”.

What follows are binders tested against T8, DFNB31_1, Q9P202 (assay: holdup assay). Settings: plain residues with an end cap or a label only (N-terminal biotin on a linker: ttds).
Set-up: key: below the threshold = too weak to quantify, mostly under pKd 3.1 to 4
For B1, the pKd was “below the threshold”. Work on B2 yielded a pKd of 4.07.

What follows are binders tested against DLG2_2, Q15700 (assay: holdup assay). Settings: plain residues with an end cap or a label only (N-terminal biotin on a linker: ttds).
Chain of DLG2_2, Q15700 (Q15700 189-283): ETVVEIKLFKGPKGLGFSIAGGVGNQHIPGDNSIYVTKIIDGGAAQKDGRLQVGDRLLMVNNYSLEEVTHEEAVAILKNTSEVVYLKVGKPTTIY
Set-up: key: below the threshold = too weak to quantify, mostly under pKd 3.1 to 4
In the case of B1, the pKd is reported as 4.97. B2 was tested, and the pKd was “below the threshold”.

Each binder was assayed against GRASP, Q7Z6J2 (assay: holdup assay). Settings: plain residues with an end cap or a label only (N-terminal biotin on a linker: ttds).
Chain of GRASP, Q7Z6J2 (Q7Z6J2 96-193): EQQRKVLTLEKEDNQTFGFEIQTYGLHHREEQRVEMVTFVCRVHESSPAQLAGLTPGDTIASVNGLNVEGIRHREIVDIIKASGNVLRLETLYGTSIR
Set-up: key: below the threshold = too weak to quantify, mostly under pKd 3.1 to 4
In the case of B1, the pKd is reported as “below the threshold”. With B2 the pKd was “below the threshold”.

These binders were tested against SCRIB_1, Q14160 (assay: holdup assay). Settings: plain residues with an end cap or a label only (N-terminal biotin on a linker: ttds).
Chain of SCRIB_1, Q14160 (Q14160 718-814): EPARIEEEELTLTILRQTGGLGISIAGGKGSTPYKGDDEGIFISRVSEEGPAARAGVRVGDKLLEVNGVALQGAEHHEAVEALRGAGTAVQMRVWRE
Set-up: key: below the threshold = too weak to quantify, mostly under pKd 3.1 to 4
With B1 the pKd was 3.82. With B2 the pKd was 5.5.

The binders below were run against Inadl_6, Q8NI35 (assay: holdup assay). Settings: plain residues with an end cap or a label only (N-terminal biotin on a linker: ttds).
Chain of Inadl_6, Q8NI35 (Q8NI35 1058-1167): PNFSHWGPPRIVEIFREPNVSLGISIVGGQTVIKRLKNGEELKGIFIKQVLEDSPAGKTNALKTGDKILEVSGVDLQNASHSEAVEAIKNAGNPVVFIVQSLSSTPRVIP
Set-up: key: below the threshold = too weak to quantify, mostly under pKd 3.1 to 4
In the case of B1, the pKd is reported as “below the threshold”. In the case of B2, the pKd is reported as 4.09.

Each binder was assayed against T9, DLG3_3, Q92796 (assay: holdup assay). Settings: plain residues with an end cap or a label only (N-terminal biotin on a linker: ttds).
Set-up: key: below the threshold = too weak to quantify, mostly under pKd 3.1 to 4
B1 showed a pKd of 4.51. For B2, the pKd was “below the threshold”.

Each binder was assayed against T10, LRRC7, Q96NW7 (assay: holdup assay). Settings: plain residues with an end cap or a label only (N-terminal biotin on a linker: ttds).
Set-up: key: below the threshold = too weak to quantify, mostly under pKd 3.1 to 4
B1 was tested, and the pKd was “below the threshold”.

What follows are binders tested against T11, SHANK1, Q9Y566 (assay: holdup assay). Settings: plain residues with an end cap or a label only (N-terminal biotin on a linker: ttds).
Set-up: key: below the threshold = too weak to quantify, mostly under pKd 3.1 to 4
In the case of B1, the pKd is reported as “below the threshold”. With B2 the pKd was 4.79.

These binders were tested against SCRIB_2, Q14160 (assay: holdup assay). Settings: plain residues with an end cap or a label only (N-terminal biotin on a linker: ttds).
Chain of SCRIB_2, Q14160 (Q14160 857-960): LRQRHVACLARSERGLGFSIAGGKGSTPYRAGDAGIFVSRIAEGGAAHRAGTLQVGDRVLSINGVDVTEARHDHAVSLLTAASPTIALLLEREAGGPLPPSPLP
Set-up: key: below the threshold = too weak to quantify, mostly under pKd 3.1 to 4
Binder B1 has a pKd of 4.18. B2 gave a pKd of 4.68.

What follows are binders tested against AHNAK1, Q09666 (assay: holdup assay). Settings: plain residues with an end cap or a label only (N-terminal biotin on a linker: ttds).
Chain of AHNAK1, Q09666 (Q09666 4-100): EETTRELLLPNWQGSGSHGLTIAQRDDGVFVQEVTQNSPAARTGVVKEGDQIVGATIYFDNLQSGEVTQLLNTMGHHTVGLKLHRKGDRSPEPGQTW
Set-up: key: below the threshold = too weak to quantify, mostly under pKd 3.1 to 4
With B1 the pKd was “below the threshold”. In the case of B2, the pKd is reported as “below the threshold”.

These binders were tested against T12, MPP2, Q14168 (assay: holdup assay). Settings: plain residues with an end cap or a label only (N-terminal biotin on a linker: ttds).
Set-up: key: below the threshold = too weak to quantify, mostly under pKd 3.1 to 4
For B1, the pKd was “below the threshold”. In the case of B2, the pKd is reported as “below the threshold”.

These binders were tested against NHERF2_2, Q15599 (assay: holdup assay). Settings: plain residues with an end cap or a label only (N-terminal biotin on a linker: ttds).
Chain of NHERF2_2, Q15599 (Q15599 142-238): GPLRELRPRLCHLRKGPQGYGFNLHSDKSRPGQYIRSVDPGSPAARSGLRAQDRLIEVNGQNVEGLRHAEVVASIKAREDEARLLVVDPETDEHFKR
Set-up: key: below the threshold = too weak to quantify, mostly under pKd 3.1 to 4
In the case of B1, the pKd is reported as “below the threshold”. In the case of B2, the pKd is reported as 4.81.

Each binder was assayed against PDZRN4_1, Q6ZMN7 (assay: holdup assay). Settings: plain residues with an end cap or a label only (N-terminal biotin on a linker: ttds).
Chain of PDZRN4_1, Q6ZMN7 (Q6ZMN7 213-318): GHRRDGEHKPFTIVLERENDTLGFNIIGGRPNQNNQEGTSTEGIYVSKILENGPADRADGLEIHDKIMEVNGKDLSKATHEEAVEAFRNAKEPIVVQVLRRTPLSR
Set-up: key: below the threshold = too weak to quantify, mostly under pKd 3.1 to 4
In the case of B1, the pKd is reported as 4.04. B2 gave a pKd of 3.98.
